Reference: patent publication US20160264664A1 (Ablynx, published 2016)
Changes are numbered by the printed parent chain.

T1: mouse P2X7 (mouse, UniProt Q9Z1M0 1-595)
T1 sequence: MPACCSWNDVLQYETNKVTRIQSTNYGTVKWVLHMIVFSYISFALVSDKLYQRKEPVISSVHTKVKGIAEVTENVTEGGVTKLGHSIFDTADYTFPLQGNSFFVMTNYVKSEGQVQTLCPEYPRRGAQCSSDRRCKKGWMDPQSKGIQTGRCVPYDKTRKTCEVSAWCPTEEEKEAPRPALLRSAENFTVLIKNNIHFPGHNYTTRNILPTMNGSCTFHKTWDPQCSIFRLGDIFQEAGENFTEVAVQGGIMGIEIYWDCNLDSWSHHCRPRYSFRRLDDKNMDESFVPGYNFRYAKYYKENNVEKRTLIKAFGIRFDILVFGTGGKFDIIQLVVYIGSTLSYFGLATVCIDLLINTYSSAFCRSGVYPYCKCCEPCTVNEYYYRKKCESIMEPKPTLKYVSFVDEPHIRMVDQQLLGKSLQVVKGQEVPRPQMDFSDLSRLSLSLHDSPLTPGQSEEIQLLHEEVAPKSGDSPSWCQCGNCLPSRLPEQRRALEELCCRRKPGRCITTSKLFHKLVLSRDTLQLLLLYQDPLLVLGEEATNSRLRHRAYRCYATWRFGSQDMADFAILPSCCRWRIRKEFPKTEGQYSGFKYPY

T2: human P2X7 (human, UniProt Q99572 1-595)
T2 construct: on transfected Hek293 cells; also called hP2X7
T2 sequence: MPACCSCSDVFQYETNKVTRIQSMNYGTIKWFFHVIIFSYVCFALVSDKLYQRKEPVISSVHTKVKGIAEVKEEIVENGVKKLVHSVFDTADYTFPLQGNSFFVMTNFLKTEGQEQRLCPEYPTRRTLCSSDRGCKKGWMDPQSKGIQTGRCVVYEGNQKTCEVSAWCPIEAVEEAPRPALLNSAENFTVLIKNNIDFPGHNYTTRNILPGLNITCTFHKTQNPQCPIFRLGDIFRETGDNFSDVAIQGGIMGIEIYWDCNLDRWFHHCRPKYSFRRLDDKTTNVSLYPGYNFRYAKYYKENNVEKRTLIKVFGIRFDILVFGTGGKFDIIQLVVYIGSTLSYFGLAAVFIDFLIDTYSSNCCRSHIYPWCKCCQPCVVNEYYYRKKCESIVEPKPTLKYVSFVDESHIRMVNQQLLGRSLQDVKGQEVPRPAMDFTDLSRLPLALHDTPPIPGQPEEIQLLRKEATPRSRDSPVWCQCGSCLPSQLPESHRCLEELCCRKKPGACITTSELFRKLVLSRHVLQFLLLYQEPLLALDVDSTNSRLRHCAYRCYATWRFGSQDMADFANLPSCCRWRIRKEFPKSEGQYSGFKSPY

T3: human P2X4 (human, UniProt Q99571 1-388)
T3 construct: whole, on cells; also called hP2X4
T3 sequence (looked up): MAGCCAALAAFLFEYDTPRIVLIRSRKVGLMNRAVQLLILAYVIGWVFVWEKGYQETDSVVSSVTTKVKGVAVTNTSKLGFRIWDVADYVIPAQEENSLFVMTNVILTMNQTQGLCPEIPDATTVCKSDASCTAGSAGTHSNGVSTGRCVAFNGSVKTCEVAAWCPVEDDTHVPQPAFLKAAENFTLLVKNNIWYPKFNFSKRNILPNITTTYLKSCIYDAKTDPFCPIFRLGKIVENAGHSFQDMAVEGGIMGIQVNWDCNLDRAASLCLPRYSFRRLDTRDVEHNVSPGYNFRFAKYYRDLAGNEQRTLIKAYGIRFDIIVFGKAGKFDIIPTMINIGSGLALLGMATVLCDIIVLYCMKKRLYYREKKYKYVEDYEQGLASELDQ

B1: P2X7PMP8F5 (VHH)
VHH: EVQLVKSGGGLVQAGGSLRLSCAASGSFFRVNNMAWYRQAPGKQRELVADITRGDRTNYADSVNGRFTISRDNVRNTVYLQMNGLKPEDTAVYYCYARIELGPLVPRDYWGQGTQVTVSS
notes: family 5, 2; on phage or c-myc/His6-tagged in assays
B2: P2X7PMP18C1 (VHH)
VHH: EVQLVESGGDLVQPGGSLRLSCVASGFALEEHAIGWFRQAPGKEREGVSLSSYLGAAYYATSVKGRFTISRDNAKNTVTLQMNSLKPEDTAVYYCARGHFTYDDGRITIRSVDYWGKGTLVTVSS
notes: family 25; on phage or c-myc/His6-tagged in assays
B3: P2X7PMP18A7 (VHH)
VHH: B2 VHH with L54V, A57V, T79Y, T108S, Y114H
notes: as for B2
B4: P2X7PMP8H5 (VHH)
VHH: B1 VHH with V2M, K6E, S27N, N33T, S62T, V92A, P103V, V105E
notes: as for B1
B5: P2X7PMP8C12 (VHH)
VHH: B1 VHH with K6E, R98T, P103V, V105E
notes: family 5, 3; on phage or c-myc/His6-tagged in assays
B6: P2X7PMP8A11 (VHH)
VHH: B1 VHH with K6E, N83D, P103V
notes: as for B1
B7: P2X7PMP8D10 (VHH)
VHH: B1 VHH with K6E, A14P, R98T, P103V, V105E
notes: as for B5
B8: P2X7PMP6A11 (VHH)
VHH: B1 VHH with K6E, S27N, N33T, S62T, V92A, P103V, V105E
notes: as for B1
B9: P2X7PMP8B12 (VHH)
VHH: B1 VHH with K6E, N33V, A40G, R98T, P103V, V105E
notes: as for B5
B10: P2X7PMP8H6 (VHH)
VHH: B1 VHH with K6E
notes: as for B1
B11: P2X7PMP8H4 (VHH)
VHH: B1 VHH with K6E, A40G, N83D, R98T, P103V
notes: as for B5
B12: P2X7PMP8E6 (VHH)
VHH: B1 VHH with K6E, S17P, S27N, N33T, S62T, V92A, P103V, V105E
notes: as for B1
B13: P2X7PMP8H10 (VHH)
VHH: B1 VHH with K6E, A40G, R98T, P103V, V105E
notes: as for B5
B14: P2X7PMP8B4 (VHH)
VHH: B1 VHH with K6E, S27N, N33T, S62T, G84S, V92A, P103V, V105E
notes: as for B1
B15: P2X7PMP1G6 (VHH)
VHH: EVQLVESGGGLVQAGGSLRLSCAASPGAFSSFNMGWFRQTPGKEREFVAATSWSDISTYYADSVKGRFTISRDNAKNTVTLEMNSLKPEDTAVYYCAAGYYRGGYLGYRLTLEGSYDVWGQGTQVTVSS
notes: family 15; on phage or c-myc/His6-tagged in assays
B16: P2X7PMP16D9 (VHH)
VHH: B15 VHH with A28T
notes: as for B15
B17: P2X7PMP19C2 (VHH)
VHH: B15 VHH with E6K, A28T
notes: as for B15
B18: P2X7PMP19E3 (VHH)
VHH: B15 VHH with V2M, A28T
notes: as for B15
B19: P2X7PMP1A8 (VHH)
VHH: EVQLVESGGGLVQTGGSLRLSCAASGFTLDDYAIAWFRQAPGKEREGVSILSSIGKTFYADSVKDRFSITADGAKTTVFLQMNSLKPGDTAIYYCVAGHFVYNDGAISLNTARGSGFWGQGAQVTVSS
notes: family 2; on phage or c-myc/His6-tagged in assays
B20: P2X7PMP1C9 (VHH)
VHH: B19 VHH with G88E
notes: as for B19
B21: P2X7PMP20C9 (VHH)
VHH: B19 VHH with V63A, G88E, A122T
notes: as for B19
B22: P2X7PMP20B10 (VHH)
VHH: B19 VHH with G88E, A122T
notes: as for B19
B23: P2X7PMP4G6 (VHH)
VHH: EVQLVESGGDVVQAGGSLRLSCLASGFTFDDYAIGWFRQAPGKEREGISCISSTGNVFYADSVKGRFTISSDKEKNTLYLQMNSLKPEDTAVYHCAAGHFTVDSGKVLLRTDVSSWGQGTQVTVSS
notes: family 1; on phage or c-myc/His6-tagged in assays
B24: P2X7PMP16H8 (VHH)
VHH: B23 VHH with F67L, V113I
notes: as for B23

What follows are binders tested against T1, mouse P2X7 (assay: cell-based or functional assay).

Binder	ATP IC50 by 2 uM NB (head prints 'mM'; ligand titration at fixed Nanobody, CD62L shedding, Yac-1 cells) [mM]	IC50 (nM) against 20 uM NAD (CD62L shedding, Yac-1 cells) [nM]	IC50 (nM) against 100 uM ATP (CD62L shedding, Yac-1 cells) [nM]
B1	0.171	579	350

What follows are binders tested against T1, mouse P2X7 (assay: phage ELISA, mP2X7-CHO vs control CHO cells).
Experimental: (§1) Sub-confluent cells were rinsed with PBS and fixed using 4% paraformaldehyde in PBS for 10 minutes at RT. Fixed cells were washed three times with PBS, and blocked with 2% BSA in PBS for 2 hours. Following blocking, 10-fold diluted culture supernatant containing phage was added and incubated for 1 hour. Cell-bound phage was detected via mouse anti-M13-HRP-conjugate (GE Healthcare, Cat nr. E2886). Rat mAb Hano43 was used as positive control.

Binder	absorption ratio (ELISA) [ratio]
B2	18
B3	14
B1	16
B4	12
B5	28
B6	11
B7	18
B8	17
B9	38
B10	17
B11	27
B12	12
B13	19
B14	13
B15	12
B16	7
B17	18
B18	8
B19	21
B20	6
B21	11
B22	8

The binders below were run against T2, human P2X7 (assay: flow cytometry, Nanobody pre-incubated with anti-Myc-FITC).

Binder	binding result
B2	no binding (tested: 147 nM)
B3	no binding (tested: 147 nM)
B1	no binding (tested: 147 nM)
B15	no binding (tested: 147 nM)
B16	no binding (tested: 147 nM)
B19	no binding (tested: 147 nM)
B21	no binding (tested: 147 nM)

Each binder was assayed against T3, human P2X4 in the same assay as above.

Binder	binding result
B2	no binding (tested: 147 nM)
B3	no binding (tested: 147 nM)
B1	no binding (tested: 147 nM)
B15	no binding (tested: 147 nM)
B16	no binding (tested: 147 nM)
B19	no binding (tested: 147 nM)
B21	no binding (tested: 147 nM)

What follows are binders tested against T1, mouse P2X7 (assay: phage ELISA on fixed mP2X7-CHO vs untransfected CHO cells;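 further: phage culture supernatant diluted 10-fold, applied for 1 h to paraformaldehyde-fixed, BSA-blocked cells in 96-well plates, with bound phage read via HRP-linked anti-M13 antibody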).
Experimental: as §1

Binder	Fold Cho P2X7/wt (phage ELISA) [fold]
B2	18
B3	14
B1	16
B15	12
B16	7
B19	20
B21	11

These binders were tested against T1, mouse P2X7 (assay: Table A-1 'P2X7 function'; screening on mP2X7-expressing cells).

Binder	binding result
B23	binds
B24	binds

What follows are binders tested against T1, mouse P2X7 (assay: flow cytometry, periplasmic extract pre-incubated with anti-myc-FITC, on mP2X7-Hek293 cells;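 further: periplasmic extract diluted 10-fold and premixed 45 min at 4 °C with FITC anti-myc antibody, giving pseudo-bivalent Nanobodies, before binding to the cells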).
Experimental: Ten-fold diluted PE were pre-incubation with 0.5 μg anti-myc FITC-conjugated antibodies (AbD Serotec, cat no. MCA2200F) (creating pseudo-bivalent Nanobodies in order to increase binding strength) in 0.1 ml PBS/10% FCS for 45 minutes at 4° C. […] Alternatively, sequential staining of 10-fold diluted PE with anti-myc FITC-conjugated antibodies was done after incubation with the cells.

Binder	MFI FACS (pre-Myc incubation) [MFI]
B2	63
B3	69
B1	143
B4	24
B5	89
B6	17
B7	94
B8	53
B9	93
B10	43
B11	65
B12	69
B13	94
B14	71
B15	11
B16	53
B17	64
B18	55
B19	18
B20	19
B21	97
B22	85
